Legend:
Akt1 [1] = target: T1, Akt1 (Homo sapiens, UniProt P31749); assay: GST-Akt1 pull-down of HA-tagged wild type FAK or FRNK from transfected Caco-2 cell lysate; assay type: binding; design: made in house; host or cells: bacteria (pGEX-4T1; E. coli BL21 is printed only for the GST-FAK fusions); settings: lysate of transiently transfected Caco-2 cells; 1 of 2 similar experiments
Procedure: Glutathione-Sepharose 4B beads (15 μl) were washed twice in ice-cold PBS and resuspended in 400 μl PBS. Bacterial lysate containing GST-Akt1, GST-FAK-NT1 (truncations), or GST proteins (gift of Dr. J. Chen) were then added in excess and incubated with the beads for 1 h. Glutathione-Sepharose 4B beads coupled to GST-Akt1, GST-FAK (truncations), or GST were then washed twice with PBS by centrifuge for 5 min at 500 g and incubated with nontransfected or transfected Caco-2 cell lysates (600-800 μg protein) overnight at 4° C. Transfected Caco-2 cells received plasmids encoding HA-WT-FAK or HA-FRNK. Nontransfected and transfected Caco-2 cell lysates were prepared in cell lysis buffer lysis buffer [50 mM Tris (pH 7.4), 150 mM NaCl, 1% Triton X-100, 1% sodium deoxycholate, 0.1% SDS, 1 mM EDTA, 1 mM phenylmethylsulfonyl fluoride, 1 mM Na3VO4, 50 mM NaF, 10 mM sodium pyrophosphate, […] (pH 7.4)]. Following incubation, beads were washed twice with lysis buffer without SDS and protease inhibitors. Proteins were eluted with Laemmli SDS sample dilution buffer, separated by 10% SDS-PAGE, and immunoblotted with GST, Akt1 (Cell Signaling Technology, Danvers, Mass.), or HA monoclonal antibodies (Covance, Chantilly, Va.). […]

CT-26 cells = assay: Pressure-induced adhesion of CT-26 cells inducibly expressing GFP-FAK-NT1; assay type: cell-based, murine
Procedure: A stable CT-26 cell line was generated per ARIAD-ARGENT protocols and GFP-FAK-NT1 expression was induced using 50 nM of the provided non-immunosuppressive rapalog, AP21967 with an equal volume of ethanol used as the control vehicle. Forty eight hours after induction, the cells were trypsinized for adhesion experiments.
Experimental pressure conditions were controlled using an airtight box with inlet and outlet valves, thumb screws, a pressure gauge and an O-ring for an airtight (11, 25). The box was prewarmed to 37° C. for 1 hour to […] minimize temperature fluctuations experienced by the cells. The gas used for pressurization was a filtered 5% CO2/95% air mixture consistent with the atmosphere in which the cells were routinely cultured. The temperature was maintained within ±2° C. and the pressure within ±1.5 mmHg.
100,000 Caco-2 or CT-26 cells were seeded to collagen I coated 6-well plates under ambient or increased pressure conditions for 30 minutes. Non-adherent cells were washed away, and the remainder fixed with 0.01 M NaIO4, 0.75 M lysine, 0.0375 M sodium phosphate buffer, pH 7.4, and 2% paraformaldehyde on ice for 1 hour. The adherent cells were counted microscopically in at least 20 random high power fields per well under a fluorescent microscope. […]

Caco-2 cells = assay: Pressure-induced adhesion of Caco-2 cells transiently expressing GFP-FAK-NT1; assay type: cell-based, human; settings: Caco-2, transient expression, vs GFP control
Procedure: Caco-2 cells were plated on p100 dishes at 30-35% confluence one day prior to transfection. The constructed or empty plasmids were transfected into Caco-2 cells at final concentrations of 2 μg/ml plasmid and 5 μg/ml Lipofectamine 2000. Five hours after transfection, the medium was replaced with 15 ml pre-warmed Caco-2 media without antibiotics. Forty eight hours after DNA transfection, the cells were trypsinized for adhesion or pull-down experiments.
Experimental pressure conditions were controlled using an airtight box with inlet and outlet valves, thumb screws, a pressure gauge and an O-ring for an airtight (11, 25). The box was prewarmed to 37° C. for 1 hour to […] minimize temperature fluctuations experienced by the cells. […]
100,000 Caco-2 or CT-26 cells were seeded to collagen I coated 6-well plates under ambient or increased pressure conditions for 30 minutes. […] The adherent cells were counted microscopically in at least 20 random high power fields per well under a fluorescent microscope.
To test whether this interaction of NT1 with Akt1 might have biological effects, we evaluated the effect of overexpressing NT1 in Caco-2 cells on the adhesive response to increased extracellular pressure, which requires FAK-Akt1 interaction. […]

Akt1 [2] = target: T1, Akt1; assay: GST-FAK truncation/mutant fusion protein pull-down of Akt1 (cell lysate or purified Akt1); assay type: binding; design: endogenous in cells; host or cells: Caco-2 or SW620 cell lysate; settings: for Akt1 pulled down by GST-FAK truncations: GST pull-down, N=4, p<0.05
Procedure: Glutathione-Sepharose 4B beads (15 μl) were washed twice in ice-cold PBS and resuspended in 400 μl PBS. Bacterial lysate containing GST-Akt1, GST-FAK-NT1 (truncations), or GST proteins (gift of Dr. J. Chen) were then added in excess and incubated with the beads for 1 h. Glutathione-Sepharose 4B beads coupled to GST-Akt1, GST-FAK (truncations), or GST were then washed twice with PBS by centrifuge for 5 min at 500 g and incubated with nontransfected or transfected Caco-2 cell lysates (600-800 μg protein) overnight at 4° C. Transfected Caco-2 cells received plasmids encoding HA-WT-FAK or HA-FRNK. Nontransfected and transfected Caco-2 cell lysates were prepared in cell lysis buffer lysis buffer [50 mM Tris (pH 7.4), 150 mM NaCl, 1% Triton X-100, 1% sodium deoxycholate, 0.1% SDS, 1 mM EDTA, 1 mM phenylmethylsulfonyl fluoride, 1 mM Na3VO4, 50 mM NaF, 10 mM sodium pyrophosphate, […] (pH 7.4)]. Following incubation, beads were washed twice with lysis buffer without SDS and protease inhibitors. Proteins were eluted with Laemmli SDS sample dilution buffer, separated by 10% SDS-PAGE, and immunoblotted with GST, Akt1 (Cell Signaling Technology, Danvers, Mass.), or HA monoclonal antibodies (Covance, Chantilly, Va.).
In some cases Glutathione-Sepharose-4B beads (30 μl) (GE Healthcare Life Science, Pittsburgh, Pa.) were conjugated with GST (expressed protein from a 250 μl bacterial pellet per 30 μl of beads) or recombinant GST-tagged (expressed protein from a 3 ml bacterial pellet per 30 μl of beads) (24) and incubated with lysate from 2×10^7 Caco-2 or SW620 cells (1500 μg protein) or purified Akt1 (0.35 μg) (Origene, Rockville, Md.) overnight at 4° C. […]
Protein concentrations were determined by bicinchoninic acid (BCA) protein assay (Pierce, Rockford, Ill.). […] Membranes were visualized by the infrared fluorescent IRDye system (LI-COR Biosciences, Lincoln, Nebr.) and analyzed on an Odyssey scanner (LI-COR Biosciences, Lincoln, Nebr.) within the linear range. […]

T1 sequence (P31749 whole entry, the tested form may be a part): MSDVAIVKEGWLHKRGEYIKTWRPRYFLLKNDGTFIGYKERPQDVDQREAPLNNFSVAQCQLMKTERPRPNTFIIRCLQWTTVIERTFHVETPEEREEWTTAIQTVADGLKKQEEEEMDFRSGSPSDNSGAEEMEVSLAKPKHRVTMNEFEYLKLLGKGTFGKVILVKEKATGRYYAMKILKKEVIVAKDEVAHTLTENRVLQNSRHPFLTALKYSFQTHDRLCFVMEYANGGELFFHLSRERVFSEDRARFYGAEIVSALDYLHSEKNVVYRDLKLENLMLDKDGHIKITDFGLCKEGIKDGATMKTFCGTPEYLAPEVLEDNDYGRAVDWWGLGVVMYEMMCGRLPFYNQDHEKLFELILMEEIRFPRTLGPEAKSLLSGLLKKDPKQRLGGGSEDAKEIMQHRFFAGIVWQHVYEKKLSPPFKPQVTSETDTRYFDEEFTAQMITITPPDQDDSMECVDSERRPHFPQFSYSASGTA

B1: HA-conjugated wild type FAK: HA-tagged wild type FAK expressed in Caco-2 cells (protein)
chain: MAAAYLDPNLNHTPNSSTKTHLGTGMERSPGAMERVLKVFHYFESNSEPTTWASIIRHGDATDVRGIIQKIVDSHKVKHVACYGFRLSHLRSEEVHWLHVDMGVSSVREKYELAHPPEEWKYELRIRYLPKGFLNQFTEDKPTLNFFYQQVKSDYMLEIADQVDQEIALKLGCLEIRRSYWEMRGNALEKKSNYEVLEKDVGLKRFFPKSLLDSVKAKTLRKLIQQTFRQFANLNREESILKFFEILSPVYRFDKECFKCALGSSWIISVELAIGPEEGISYLTDKGCNPTHLADFTQVQTIQYSNSEDKDRKGMLQLKIAGAPEPLTVTAPSLTIAENMADLIDGYCRLVNGTSQSFIIRPQKEGERALPSIPKLANSEKQGMRTHAVSVSETDDYAEIIDEEDTYTMPSTRDYEIQRERIELGRCIGEGQFGDVHQGIYMSPENPALAVAIKTCKNCTSDSVREKFLQEALTMRQFDHPHIVKLIGVITENPVWIIMELCTLGELRSFLQVRKYSLDLASLILYAYQLSTALAYLESKRFVHRDIAARNVLVSSNDCVKLGDFGLSRYMEDSTYYKASKGKLPIKWMAPESINFRRFTSASDVWMFGVCMWEILMHGVKPFQGVKNNDVIGRIENGERLPMPPNCPPTLYSLMTKCWAYDPSRRPRFTELKAQLSTILEEEKAQQEERMRMESRRQATVSWDSGGSDEAPPKPSRPGYPSPRSSEGFYPSPQHMVQTNHYQVSGYPGSHGITAMAGSIYPGQASLLDQTDSWNHRPQEIAMWQPNVEDSTVLDLRGIGQVLPTHLMEERLIRQQQEMEEDQRWLEKEERFLKPDVRLSRGSIDREDGSLQGPIGNQHIYQPVGKPDPAAPPKKPPRPGAPGHLGSLASLSSPADSYNEGVKLQPQEISPPPTANLDRSNDKVYENVTGLVKAVIEMSSKIQPAPPEEYVPMVKEVGLALRTLLATVDETIPLLPASTHREIEMAQKLLNSDLGELINKMKLAQQYVMTSLQQEYKKQMLTAAHALAVDAKNLLDVIDQARLKMLGQTRPH
modifications: left off: small tags and cut ends
notes: HA-tagged wild type FAK expressed in Caco-2 cells
HA-tagged protein in eluate after passage over GST-Akt1 beads (Western blot for HA) (Akt1 [1]): enriched

B2: HA-conjugated FRNK: HA-tagged FAK-related non-kinase, 67 kDa segment from the COOH-terminal region of FAK (protein)
chain: MESRRQATVSWDSGGSDEAPPKPSRPGYPSPRSSEGFYPSPQHMVQTNHYQVSGYPGSHGITAMAGSIYPGQASLLDQTDSWNHRPQEIAMWQPNVEDSTVLDLRGIGQVLPTHLMEERLIRQQQEMEEDQRWLEKEERFLKPDVRLSRGSIDREDGSLQGPIGNQHIYQPVGKPDPAAPPKKPPRPGAPGHLGSLASLSSPADSYNEGVKLQPQEISPPPTANLDRSNDKVYENVTGLVKAVIEMSSKIQPAPPEEYVPMVKEVGLALRTLLATVDETIPLLPASTHREIEMAQKLLNSDLGELINKMKLAQQYVMTSLQQEYKKQMLTAAHALAVDAKNLLDVIDQARLKMLGQTRPH
modifications: left off: small tags and cut ends
notes: HA-tagged FAK-related non-kinase, 67 kDa segment from the COOH-terminal region of FAK
HA-tagged protein in eluate after passage over GST-Akt1 beads (Western blot for HA) (Akt1 [1]): markedly reduced

B3: GFP-FAK-NT1: GFP fusion of FAK-NT1 (residues 1-126) expressed transiently or inducibly in cells (protein)
chain: MAAAYLDPNLNHTPNSSTKTHLGTGMERSPGAMERVLKVFHYFESNSEPTTWASIIRHGDATDVRGIIQKIVDSHKVKNVACYGFRLSHLRSEEVHWLHVDMGVSSVREKYELAHPPEEWKYELRI
modifications: left off: large carriers
notes: GFP fusion of FAK-NT1 (residues 1-126) expressed transiently or inducibly in cells
Stimulation of cell adhesion by increased pressure (CT-26 cells; CT26, expression induced 48 hours before, 15 mmHg 30 minutes, vs GFP control): prevented the stimulation of cell adhesion by increased pressure | Basal levels of adhesion (CT-26 cells; CT26, inducible expression): reduced | Pressure-induced adhesion (Caco-2 cells; 15 mmHg increased pressure 30 minutes): inhibited | Basal levels of adhesion (Caco-2 cells; ambient pressure): reduced

B4: NT1: recombinant GST-FAK truncated peptide, FAK residues 1-126 (SEQ ID NO:3) (protein)
chain: B3 chain
modifications: left off: large carriers
Akt1 pulled down by GST-FAK truncations (Akt1 [2]): significantly more Akt1 | Akt1 pulled down by GST-FAK-NT1-conjugated Sepharose beads (Akt1 [2]; overnight incubation with either cell lysate or purified Akt1): pulled down Akt1

B5: NT1-2: recombinant GST-FAK truncated peptide, residues 61-126 (protein, listed as Homo sapiens)
chain: ATDVRGIIQKIVDSHKVKNVACYGFRLSHLRSEEVHWLHVDMGVSSVREKYELAHPPEEWKYELRI
modifications: GST tag
Akt1 pulled down by GST-FAK truncations (Akt1 [2]): significantly more Akt1
